Source: patent US20150141489

Target: endogenous p38α, Q16539
Sequence (Q16539 2-360): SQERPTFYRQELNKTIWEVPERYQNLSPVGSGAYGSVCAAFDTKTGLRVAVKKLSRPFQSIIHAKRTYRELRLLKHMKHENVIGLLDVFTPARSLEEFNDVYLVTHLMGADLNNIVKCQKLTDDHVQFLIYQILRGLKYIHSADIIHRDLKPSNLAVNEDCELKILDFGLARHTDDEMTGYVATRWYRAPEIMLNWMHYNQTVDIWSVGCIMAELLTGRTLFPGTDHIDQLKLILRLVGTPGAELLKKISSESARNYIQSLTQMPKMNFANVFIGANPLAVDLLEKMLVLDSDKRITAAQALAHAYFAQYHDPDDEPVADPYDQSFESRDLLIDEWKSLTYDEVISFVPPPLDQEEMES

B1: T7-tagged human Mnk2a (protein)
chain: MVQKKPAELQGFHRSFKGQNPFELAFSLDQPDHGDSDFGLQCSARPDMPASQPIDIPDAKKRGKKKKRGRATDSFSGRFEDVYQLQEDVLGEGAHARVQTCINLITSQEYAVKIIEKQPGHIRSRVFREVEMLYQCQGHRNVLELIEFFEEEDRFYLVFEKMRGGSILSHIHKRRHFNELEASVVVQDVASALDFLHNKGIAHRDLKPENILCEHPNQVSPVKICDFDLGSGIKLNGDCSPISTPELLTPCGSAEYMAPEVVEAFSEEASIYDKRCDLWSLGVILYILLSGYPPFVGRCGSDCGWDRGEACPACQNMLFESIQEGKYEFPDKDWAHISCAAKDLISKLLVRDAKQRLSAAQVLQHPWVQGCAPENTLPTPMVLQRNSCAKDLTSFAAEAIAMNRQLAQHDEDLAEEEAAGQGQPVLVRATSRCLQLSPPSQSKLAQRRQRASLSSAPVVLVGDHA
p38-MAPK phosphorylation (Western blot): only cells expressing Mnk2a showed increased p38-MAPK phosphorylation, indicating that p38-MAPK is activated

B2: Mnk2a-kinase dead (Mnk2aKD) (protein)
chain: MVQKKPAELQGFHRSFKGQNPFELAFSLDQPDHGDSDFGLQCSARPDMPASQPIDIPDAKKRGKKKKRGRATDSFSGRFEDVYQLQEDVLGEGAHARVQTCINLITSQEYAVAIIEKQPGHIRSRVFREVEMLYQCQGHRNVLELIEFFEEEDRFYLVFEKMRGGSILSHIHKRRHFNELEASVVVQDVASALDFLHNKGIAHRDLKPENILCEHPNQVSPVKICDFDLGSGIKLNGDCSPISTPELLTPCGSAEYMAPEVVEAFSEEASIYDKRCDLWSLGVILYILLSGYPPFVGRCGSDCGWDRGEACPACQNMLFESIQEGKYEFPDKDWAHISCAAKDLISKLLVRDAKQRLSAAQVLQHPWVQGCAPENTLPTPMVLQRNSCAKDLTSFAAEAIAMNRQLAQHDEDLAEEEAAGQGQPVLVRATSRCLQLSPPSQSKLAQRRQRASLSSAPVVLVGDHA
p38 or MK2 phosphorylation (Western blot): it did not cause activation of p38, as measured by p38 or MK2 phosphorylation
